According to PMC4021855 (Nature chemical biology, 2013):
Ends that are not written are not given here.

Key:
[1] = target: human full-length KRS WT, His-tagged (human, UniProt Q15046 1-597); test: AlphaScreen or HTRF
[2] = target: human full-length KRS T52D, His-tagged (human, UniProt Q15046 1-597, T52D); test: AlphaScreen or HTRF
Chain of human full-length KRS T52D, His-tagged (Q15046 whole entry T52D): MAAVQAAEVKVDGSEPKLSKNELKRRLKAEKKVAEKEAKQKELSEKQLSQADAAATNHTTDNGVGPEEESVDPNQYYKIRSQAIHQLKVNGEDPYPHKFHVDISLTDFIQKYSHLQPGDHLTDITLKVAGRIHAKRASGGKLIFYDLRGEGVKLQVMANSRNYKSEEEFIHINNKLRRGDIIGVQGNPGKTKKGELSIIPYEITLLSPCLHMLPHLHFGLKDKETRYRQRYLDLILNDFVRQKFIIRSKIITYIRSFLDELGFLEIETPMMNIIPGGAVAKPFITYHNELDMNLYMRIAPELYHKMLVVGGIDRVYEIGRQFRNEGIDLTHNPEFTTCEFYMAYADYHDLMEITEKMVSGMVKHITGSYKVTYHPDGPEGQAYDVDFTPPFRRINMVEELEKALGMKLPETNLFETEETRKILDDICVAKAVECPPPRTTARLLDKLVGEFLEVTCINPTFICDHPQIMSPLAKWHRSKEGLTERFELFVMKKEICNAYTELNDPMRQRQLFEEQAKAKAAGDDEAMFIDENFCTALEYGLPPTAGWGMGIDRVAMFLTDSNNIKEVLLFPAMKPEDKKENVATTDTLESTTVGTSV

Chain of human full-length KRS WT, His-tagged (Q15046 whole entry): as the sequence (Q15046 whole entry T52D) above, with D52T counted along it

binding result [1]: binds | Kd [2]: 0.333 µM
Binder: MPMYQVKPYHGGGAPLRVELPTCMYRLPNVHGRSYGPAPGAGHVQEES-{TRX} (domain or fragment, human, UniProt Q13155 1-48, looked up, also: biotin via EZ-Link-NHS-PEG12-Biotin, places not given here) [AIMP2_(1–48)-TRX-Biotin]
